assay: label from the status in PepcDB records

Sequence | protein production
SIQGKVALIAGGAKNLGGLIARDLAAHGARAIAIHYNSPASKADADATVAALQAAGAQAVALQGDLTTAAAVEKLYADALAAVGRPDIAINTVGKVLKKPFSEISEAEYDEMAAVNAKSAFFFLKEAGRHVNDHGKIVTLVTSLLGAFTPFYSAYAGTKAPVEHYTRAAAKEFGARGISVTAVGPGPMDTPFFYGQESPEAVAYHQSAAALSPHSPTGLTHIEDVVPFIRHLVSDGWWITGQTLLINGGY | failed
SIQKDLANIAEVEVSIPAKLHNSLIGTKGRLIRSIMEECGGVHIHFPVEGSGSDTVVIRGPSSDVEKAKKQLLHLAEEKQTK | not failed
SISNRDTNGMPFAKETLEQQQAVEKKNEILEMSYEIAKLLETGLDRETLQVAIELLEQGFDPYALASVIKELKRGNNQTTE | failed
SKETIMNQKLTKRQAEVHTGRKGTAHRKKVVHTTAEDKKFQFSLKKLGVNNIPGIEEVNMFTHQGTVIHFNNPEVQASLAANTFTMTGHAETKQLTEMLLSIDHKPVLQMV | not failed
SKNEKEQLSKAKASVSSLNKVIQTKLTVGNLGLGLVVIQNGPYLQISHLINKGAAASDGILQPGDVLISVGHANVLGYTLREFLKLLQNITIGTVLQIKAYRGFLEIPQEWQD | not failed
SLEEVVNELTEEIRELYTADQVPWVIGYSGGKDSTAVLQLVWMALKGLPAEQRTKAVHVISTDTLVENPVVAAWVSASLGTMQDAAQAQGLPVEPHRLTPEIKDTFWVNLLGRGYPAPRPKFRWCTERLKIKPSNAFIRSVVAAHGEAIMVLGIRKTESQARARAMEKHEKRRVRDRLSPNANLPNSLVYSPVEDWTNDDVWEFLMQKPNPWGYTNQDLLTMYQGASSDGECPLVVDSTTPSCGSSRFGCWT | failed
SLETVQLRNPPRRQLKKLDEDSLTKQPEEVFDVLEKLGEGSYGSVYKAIHKETGQIVAIKQVPVESDLQEIIKEISIMQQCDSPHVVKYYGSYFKNTDLWIVMEYCGAGSVSDIIRLRNKTLTEDEIATILQSTLKGLEYLHFMRKIHRDIKAGNILLNTEGHAKLADFGVAGQLTDTMAKRNTVIGTPFWMAPEVIQEIGYNCVADIWSLGITAIEMAEGKPPYADIHPMRAIFMIPTNPPPTFRKPELWSDNFTDFVKQCLVKSPEQRATATQLLQHPFVRSAKGVSILRDLINEAMDVKLKRQESQQREEG | not failed
SLKGKIEWVRVSAVVHSTEDREKVGEAISTLFPFEFEIAVSKAKGHYGNPMEYLEVELTKSSEIKKFWKNLLELLGEQAEEILSTLEDRIDEQNVLHIRIDKQKAYLGEVSLTSGGDPIAVKLRLVTYPSKREKVIEFARELCTIS | not failed
SLNDLPGAGRMDVLCRCTSQALFISHGIRRDVEVYLLLLGPPSPPKSILIKGDEVRRMSPDERNVAGHIKKALAVECGKSWKKVHSGVYVSRKGLEELIEELSEKYSIIYLKEDGVDISNAQLPPNPLFVIGDHEGLTEEQEKVVERYAALKLSLSPLSLLAEQCVVIAHHHLDRLQF | not failed
SLQTSDVVIHRKENEGFGFVIISSLNRPESGSTITVPHKIGRIIDGSPADRCAKLKVGDRILAVNGQSIINMPHADIVKLIKDAGLSVTLRIIPQEELNSP | not failed
SLRTKSWTDDLKVCNQTGVGEAINQIYKDDGRRCEGYESRDKKCLCISDNNTSLYAILSGHNGVTVAENALQEMAAELLLGQLNVCNTDEAVKELIRQSFMSVEKGYFDSINPHVATKTAIQLHLSADGMNQYEISQQFENVLQKLDSLNNALSVGSSAVLALIHRSHLYLGNIGNCRALLCKTDEHDTLTVTQLSVDHNLLNAEEAARLFRLGLMAQNFEGVPLYSTRCIGNYLGKAGYKDCNFLSSATAEPVIFEPEIVGGIQITPACRFLVLMSSGLCRALHEIFPGDASTGNRELVRMISEEFQNQSTLGGVAQSVVHRIVQAHHDTYMQLVEEHRSVTFNSRDDVTLLIRNFNYA | not failed
SLSRTVHHQQTAEITQQAADFIRYMNAINDYLYQHPERRAAGGQLTSAQLGLPATKNVSHLISQQRVFVWAKEKPGLMGALLEQSGDSALLARVENGRLLDTHGRRISITLPAVIPDQVIIWMN | not failed
SLSSTQSVNSVLAPGNLRKVHHIALNVQDMQASRYFYGTILGLHELTDDEVPATLTELVASGKVANFITPDGTILDLFGEPELSPPDPNPEKTFTRAYHLAFDIDPQLFDRAVTVIGENKIAIAHGPVTRPTGRGVYFYDPDGFMIEIRCDPEAEG | not failed
SLVDGKLVCVTGAGGYIASWIVKLLLERGYTVRGTVRNPTDPKNNHLRELQGAKERLTLHSADLLDYEALCATIDGCDGVFHTASPMTDDPETMLEPAVNGAKFVIDAAAKAKVKRVVFTSSIGAVYMNPNRDTQAIVDENCWSDLDFCKNTKNWYCYGKMLAEQSAWETAKAKGVDLVVLNPVLVLGPPLQSAINASLVHILKYLTGSAKTYANLTQVYVDVRDVALGHVLVYEAPSASGRYILAETALHRGEVVEILAKFFPEYPLPTKCSDEKNPRAKPYKFTTQKIKDLGLEFKPIKQSLYESVKSLQEKGHLPLPQDSNQNEVIIES | failed
SLWQPQTGDIIFQISRSSQSKAIQLATHSDYSHTGMLVMRNKKPYVFEAVGPVKYTPLKQWIAHGEKGKYVVRRVEGGLSVEQQQKLAQTAKRYLGKPYDFSFSWSDDRQYCSEVVWKVYQNALGMRVGEQQKLKEFDLSNPLVQAKLKERYGKNIPLEETVVSPQAVFDAPQLTTVAKEWPLFSW | not failed
SNAMNVPFWTEEHVRATLPERDAESHKGTYGTALLLAGSDDMPGAALLAGLGAMRSGLGKLVIGTSENVIPLIVPVLPEATYWRDGWKKAADAQLEETYRAIAIGPGLPQTESVQQAVDHVLTADCPVILDAGALAKRTYPKREGPVILTPHPGEFFRMTGVPVNELQKKRAEYAKEWAAQLQTVIVLKGNQTVIAFPDGDCWLNPTGNGALAKGGTGDTLTGMILGMLCCHEDPKHAVLNAVYLHGACAELWTDEHSAHTLLAHELSDILPRVWKRFE | not failed

Sequence | protein production
SNEELETAKEEMQSVNEELQTINSELHGKNELLLQANNDLQNLLDNTQIATIFLDDDLTVRNFTPAAREVFSLRDGDRGRPVTEITSLLSYDKLCEDVRTVQRTLGVVESQLDLEDESATYIMRIRPYRTVANVISGVVITFSNITEQKQQHDHLQVLMGELQHRTNNVFAVILAIARQTVRNS | failed
SNGTPLMTPTELIERQASGEQLQIIDTRSKKQYEISCVKGAIHIPLAEIRDRVAELDKNVTTITYCNKGVTGNAAQNILLNEGFKEVYNLSGGNKNY | failed
SNMQLDTLRRIVQEINSSVSLHDSLDIMVNQVADAMKVDVCSIYLLDERNQRYLLMASKGLNPESVGHVSLQLSEGLVGLVGQREEIVNLENASKHERFAYLPETGEEIYNSFLGVPVMYRRKVMGVLVVQNKQPQDFSEAAESFLVTLCAQLSGVIAHAHAVGNIDVFRKPSNGA | not failed
SPEHGQAGRKIGEEGIVLLQNKDNVLPIDLKKARKIAVIGENAIKMMTVGGGSSSLKVKYEISPLDGLKNRVGSQAEVLYVRGYVGDPTGEYNGVQTGQDLKDDRSEDELLAEAVEVSKDADYVIFFGGLNKSNHQDCEDSDRASLGLPYAQDRVIGELAKVNKNLIVVNISGNAVAMPWVNEVPAIVQGWFLGSEAGTALASVLLGDANPSGKLPFTFPARLEDVGAHKLGEYPGNKEELAHSKNNGDTINEIYREDIFVGYRWADKEKIKPLFPFGHGLSYTTF | failed
SPEYGMPSVTFGSVHPSDVLDMPVDPNEPTYCLCHQVSYGEMIGCDNPDCSIEWFHFASCGADNQPRGKWXFPRCSQE | not failed
SPGSAAKGSELSERIESFVETLKRGGGPRSSEEMARETLGLLRQIITDHRWSNAGELMELIRREGRRMTAAQPSETTVGNMVRRVLKIIREEYGRLHGRTDESDQQESLHKLLTSGGLNEDFSFHYAQLQSNIIEAINELLVELEGTMENIAAQALEHIHSNEVIMTIGFSRTVEAFLKEAARKRKFHVIVAECAPFCQGHEMAVNLSKAGIETTVMTDAAIFAVMSRVNKVIIGTKTILANGALRAVTGTHTLALAAKHHSTPLIVCAPMFKLSPQFPNEEDSFHKFVAPEEVLPFTEGDILEKVSVHCPVFDYVPPELITLFISNIGGNAPSYIYRLMSELYHPDDHVL | failed
SPLGQIQLTIRHSSQRNKLIVVVHACRNLIAFSEDGSDPYVRMYLLPDKRRSGRRKTHVSKKTLNPVFDQSFDFSVSLPEVQRRTLDVAVKNSGGFLSKDKGLLGKVLVALASEELAKGWTQWYDLTED | not failed
SPMANSGPLCCTICHERLEDTHFVQCPSVPSHKFCFPCSRESIKAQGATGEVYCPSGEKCPLVGSNVPWAFMQGEIATIL | not failed
SPNPPKLTKQMNAIIDTVINYKDSSGRQLSEVFIQLPSRKELPEYYELIRKPVDFKKIKERIRNHKYRSLGDLEKDVMLLCHNAQTFNLEGSQIYEDSIVLQSVFKSARQ | not failed
SQEIVAGELERCFLAMPESVLPIVTMEERNDLCRRAGHLSGFTHTASLESSLGGTVTFLLNRNFIRIQTSTVGEVFMRILPFSDSSSVICVVTTVLHPVADSRIDFYTTEWKPLKTDRFWQQPRIEDFFLPHTDRQSYAYQAIYASLTPSYMQVSLSEESDTLSIRQTVTETLAEEEKPLAAIFLSPEPLVYRWQSGRFVRQVR | not failed
SQELTLSPGPAKLTPTLDPTHRMELILSTSPAELTLDPACQPKLPLDSTCQPEMTFNPGPTELTLDPEHQPEETPAPSLAELTLEPVHRRPELLDACADLINDQWPRSRTSRLHSLGQSSDAFPLCLMLLSPHPTLEAAPVVVGHARLSRVLNQPQSLLVETVVVARALRGRGFGRRLMEGLEVFARARGFRKLHLTTHDQVHFYTHLGYQLGEPVQGLVFTSRRLPATLLNAFPTAPSPRPPRKAPNLTAQAAPRGPKGPPLPPPPPLPECLTISPPVPSGPPSKSLLETQYQNVRGRPIFWMEKDI | not failed
SQGLDTLLRDLTDRAVVQVPGAVACSVTVRRADRLMTLAGSTGLPSGLDLRQYENGSGPCVDAAESGDAQYCADLAEETRWPAYTEYALATGVRCVLALPLPIEGETGAALNLYGLVPGSLVQGLDAARAFAERAADAVNEALRIERRQASAADVRTALLSRSVIDQAVGMLMARERI | not failed
SQPQQGKQYEVLPVSLQEYNLAPLTEAFALTCGHCRSMEEFVPQIESLTEQKVEKMHVTFNESAQISAIIFYTAVMQLDATPDKAFMADLFAAVQMGADATAEERQQAVEKAFESRNLISPYHLDEAQQEKLFEYITKAESITTRGQINSVPAFIVNGKYQVITGGHDSVEAMAETINYLLKQ | not failed
SRKRLSAPELRLSLTKGPGNDGASPTQSAPSSPDGSSDLEIDELETPSDSEQLDSGHEFEWEDELPRAEGLGTSETAERLGRGCMWDVTGEDGHHWRVFRMGPREQRVDMTVIEPYKKVLSHGGYHGDGLNAVILFASCYLPRSSIPNYTYVMEHLFRYMVGTLELLVAENYLLVHLSGGTSRAQVPPLSWIRQCYRTLDRRLRKNLRALVVVHATWYVKAFLALLRPFISSKFTRKIRFLDSLGELAQLISLDQVHIPEAVRQLDRDLHGSGGT | failed
SSALSRNGSFITKEKKDTVLRQVRLDPCDLQPIFDDMLHFLNPEELRVIEEIPQAEDKLDRLFEIIGVKSQEASQTLLDSVYSHLPDLL | not failed

— a protein production outcome set (Wang et al. 2014)
